Data set [1] addresses T1, Saccharomyces cerevisiae α-factor pheromone receptor (Ste2) (Saccharomyces cerevisiae) (UniProt D6VTK4).
T1 sequence: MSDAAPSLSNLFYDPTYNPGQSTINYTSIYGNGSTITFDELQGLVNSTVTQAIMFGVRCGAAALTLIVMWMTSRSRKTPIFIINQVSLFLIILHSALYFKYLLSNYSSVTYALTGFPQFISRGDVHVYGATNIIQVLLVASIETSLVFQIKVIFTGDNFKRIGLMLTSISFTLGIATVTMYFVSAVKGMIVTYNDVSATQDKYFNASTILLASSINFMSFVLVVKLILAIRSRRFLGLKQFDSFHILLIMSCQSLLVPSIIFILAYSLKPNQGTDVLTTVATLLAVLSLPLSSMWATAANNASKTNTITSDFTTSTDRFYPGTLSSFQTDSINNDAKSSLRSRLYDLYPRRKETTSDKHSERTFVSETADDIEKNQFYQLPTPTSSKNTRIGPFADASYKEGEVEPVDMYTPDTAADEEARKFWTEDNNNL
Nature of the data set: cell-based or functional assay.

Data set [2] concerns pheromone response pathway (PRP). As to the method: To investigate the dose-response features of the selected promoters PMFA2, PFUS1, PAGA2, PFIG.1, PMFA1, PYCL076W, PHPF1, PIME4, PCSS1, PTDH3, PPGK1 and P6XLexOLEU2 upon GPCR stimulation the strains were pre-grown in SC (24 hrs.), whereafter, for each replicate, cells were transferred to 200 μL volumes comprising a 10-fold dilution series of α-factor (0-100 μM) (GenScript) dissolved in SC+1% DMSO, and stimulated for 5 hrs. (30° C., 250 r.p.m.). Flow cytometric measurement was done to quantify yEGFP levels (B525/45-A) and PRP-regulated morphological changes, denoted shmooing (SSC-A) using a NovoCyte Quanteon flow cytometer (Agilent). Data represents means of median fluorescence intensity (mMFI) for three biological replicates and standard deviations hereof. Two-way ANOVA with Tukey's multiple comparisons test was conducted for all conditions.

Data set [3] concerns CD19. Nature of the data set: Yeast surface display (YSD) of CD19, antibody staining and flow cytometry. Type of data set: cell-based, Saccharomyces cerevisiae. Particulars: for fold upregulation of CD19 display relative to unstimulated condition: α-factor 0-100 μM, 20 hrs, promoter driving CD19 in DIX41 background. As to the method: To investigate the different variants of CD19 modules, yeast cells were grown and, in some cases, stimulated to present CD19 differentially, whereafter they were stained with antibodies and assessed by flow cytometry. Flow cytometric measurement was done using a NovoCyte Quanteon flow cytometer (Agilent) to quantify CD19 by staining with mouse anti-CD19 (FMC63) (Absolute Antibody; Ab00613) and goat anti-mouse-AF647 (polyclonal) (Thermo Fisher; A-21236), detected in R667/30-H, as well as rabbit anti-HA (RM305) (Thermo Fisher; MA5-27915) and goat anti-rabbit-AF488 (polyclonal) (Thermo Fisher; A-11008), detected in B525/45-H (see FIG. 7), and to measure PRP-regulated morphological changes (SSC-H). […] Data represents means of median fluorescence intensity (mMFI) for three biological replicates and standard deviations hereof. Two-way ANOVA with multiple comparisons tests was conducted for all conditions. Histograms are representative replicates. No SSC-normalization was used in the evaluation of the effector module, unlike in Example 1, as it is the absolute response of all effects combined that constitute the total output that CAR T cells interpret and react to.
For conventional YSD using strain EBY100 and pCT-plasmid-based expression (Chao et al. 2006, Isolating and engineering human antibodies using yeast surface display. Nature Protocols, 1(2), 755-768), strains were pre-grown in SC −trp, then transferred to 5 mL SC −trp +2% Gal for induction of YSD or +2% Gluc as a negative control (24 hrs., 30° C., 250 r.p.m.). NALM6 was cultured in RPMI 1640 medium (ATCC modification) (Thermo Fisher) with 10% fetal bovine serum and 1% pen-strep (RPMI+10% FBS) at 37° C. with 5% CO2. For the investigation of PGAL1-titratability of DIX41 with pMAD58 and DIX74, strains were pre-grown in SC −ura and SC, respectively, then transferred to SC −ura and SC, respectively, with varying concentrations of galactose (0.0002%-2% Gal), using raffinose as compensating carbon source, and YSD was induced for 24 hrs. (30° C., 250 r.p.m.). Strains were similarly grown in 2% Gluc as negative controls. For the investigation of the strain library with constitutive and dynamically regulated expression of CD19 (Background strain/No YSD, PPGK1-Empty, PMFA2-CD19, PFUS1-CD19, PFIG.1-CD19, PMFA1-CD19, PHPF1-CD19, PTDH3-CD19, PPGK1-CD19) the strains were pre-grown in SC, whereafter, for each replicate, 50.000 cells were transferred to 300 μL volumes comprising a 10-fold dilution series of α-factor (0-100 μM) (GenScript) dissolved in SC+1% DMSO, and stimulated for 20 hrs. (30° C., 250 r.p.m.).

Consider “α-factor (GenScript) (from UniProt P01149 90-102) (peptide)”, for which, in data set [1], the fold change of induction of yEGFP, SSC-normalized, promoter PFIG1, maximum at 100 µM α-factor was 129 fold; the fold change of induction of yEGFP, SSC-normalized, promoter PHPF1 came out at 0.62 fold; the fold change of yEGFP, unnormalized, promoter PFIG1, 1 µM α-factor is 517 fold; the fold change of yEGFP, unnormalized, promoter PFIG1, 100 µM α-factor amounted to 483 fold. Further, in data set [1], the fold upregulation of CD19 display, promoter PFIG1, 20 hrs α-factor was found to be 630 fold; the fold upregulation of CD19 display, promoter PFUS1, 20 hrs α-factor is 774 fold; the fold upregulation of CD19 display, promoter PTDH3 came to 3.1 fold; the general PRP-induced expression boost of yEGFP after 5 hrs of GPCR stimulation amounted to 4.01 fold. In data set [1], this molecule registered a maximal fold change of CD19 display, promoters PHPF1, PTDH3 and PPGK1, lower end of 2.9 to 3.8 fold; a maximal fold change of CD19 display, promoters PHPF1, PTDH3 and PPGK1, upper end of 2.9 to 3.8 fold.
As for α-factor [reference compound], in data set [2] (across all strains, 5 hrs), the “α-factor concentration at which shmooing (SSC-A) was most intense” value was not below 0.01 µM and the “α-factor concentration at which shmooing generally peaked” value came out at 1 µM.

B1: PTDH3: constitutive Saccharomyces cerevisiae promoter, SEQ ID NO: 10, processing module (DIX28, DIX49) (nucleic acid, listed as Saccharomyces cerevisiae)
DNA: CTATTTTCGAGGACCTTGTCACCTTGAGCCCAAGAGAGCCAAGATTTAAATTTTCCTATGACTTGATGCAAATTCCCAAAGCTAATAACATGCAAGACACGTACGGTCAAGAAGACATATTTGACCTCTTAACAGGTTCAGACGCGACTGCCTCATCAGTAAGACCCGTTGAAAAGAACTTACCTGAAAAAAACGAATATATACTAGCGTTGAATGTTAGCGTCAACAACAAGAAGTTTAATGACGCGGAGGCCAAGGCAAAAAGATTCCTTGATTACGTAAGGGAGTTAGAATCATTTTGAATAAAAAACACGCTTTTTCAGTTCGAGTTTATCATTATCAATACTGCCATTTCAAAGAATACGTAAATAATTAATAGTAGTGATTTTCCTAACTTTATTTAGTCAAAAAATTAGCCTTTTAATTCTGCTGTAACCCGTACATGCCCAAAATAGGGGGCGGGTTACACAGAATATATAACATCGTAGGTGTCTGGGTGAACAGTTTATTCCTGGCATCCACTAAATATAATGGAGCCCGCTTTTTAAGCTGGCATCCAGAAAAAAAAAGAATCCCAGCACCAAAATATTGTTTTCTTCACCAACCATCAGTTCATAGGTCCATTCTCTTAGCGCAACTACAGAGAACAGGGGCACAAACAGGCAAAAAACGGGCACAACCTCAATGGAGTGATGCAACCTGCCTGGAGTAAATGATGACACAAGGCAATTGACCCACGCATGTATCTATCTCATTTTCTTACACCTTCTATTACCTTCTGCTCTCTCTGATTTGGAAAAAGCTGAAAAAAAAGGTTGAAACCAGTTCCCTGAAATTATTCCCCTACTTGACTAATAAGTATATAAAGACGGTAGGTATTGATTGTAATTCTGTAAATCTATTTCTTAAACTTCTTAAATTCTACTTTTATAGTTAGTCTTTTTTTTAGTTTTAAAACACCAAGAACTTAGTTTCGAATAAACACACATAAACAAACAAA
As to B1, the “fold upregulation of CD19 display relative to unstimulated condition” value in data set [3] is 3.1±0.3 fold. In data set [3] (α-factor stimulation), the “change of absolute CD19 output on upregulation compared with that of PFUS1” value worked out at 150.2%.

B2: PFUS1: pheromone-responsive Saccharomyces cerevisiae promoter, SEQ ID NO: 8, processing module (yEGFP strain DIX24, CD19 strain DIX45) (nucleic acid, listed as Saccharomyces cerevisiae)
DNA: TAATAATCAGAACTCCAACAATAGTCAACAGGGCTATAACCAATCCTATCAAAACGGTAACCAAAATAGTCAAGGTTACAATAATCAACAGTACCAAGGTGGCAACGGTGGTTACCAACAACAACAGGGACAATCTGGTGGTGCTTTTTCCTCATTGGCCTCCATGGCTCAATCTTACTTAGGTGGTGGACAAACTCAATCCAACCAACAGCAATACAATCAACAAGGCCAAAACAACCAGCAGCAATACCAGCAACAAGGCCAAAACTATCAGCATCAACAACAGGGTCAGCAGCAGCAACAAGGCCACTCCAGTTCATTCTCAGCTTTGGCTTCCATGGCAAGTTCCTACCTGGGCAATAACTCCAATTCAAATTCGAGTTATGGGGGCCAGCAACAGGCTAATGAGTATGGTAGACCGCAACAGAATGGTCAACAGCAATCCAATGAGTACGGAAGACCGCAATACGGCGGAAACCAGAACTCCAATGGACAGCACGAATCCTTCAATTTTTCTGGCAACTTTTCTCAACAGAACAATAACGGCAACCAGAACCGCTACTGAACGATGATTCAGTTCGCCTTCTATCCTTTGTTTACGTATTTGTTTATATATATAACTTTATTTTTTTTTATTAATTGGGCTGCAAGACAATTTTGTTGTCAGTGATGCCTCAATCCTTCTTTTGCTTCCATATTTACCATGTGGACCCTTTCAAAACAGAGTTGTATCTCTGCAGGATGCCCTTTTTGACGTATTGAATGGCATAATTGCACTGTCACTTTTCGCGCTGTCTCATTTTGGTGCGATGATGAAACAAACATGAAACGTCTGTAATTTGAAACAAATAACGTAATTCTCGGGATTGGTTTTATTTAAATGACAATGTAAGAGTGGCTTTGTAAGGTATGTGTTGCTCTTAAAATATTTGGATACGACATCCTTTATCTTTTTTCCTTTAAGAGCAGGATATAAGCCATCAAGTTTCTGAAAATCAAA
With B2, in data set [2] (PFUS1 STE12+ strain), the “maximal absolute yEGFP output relative to orthogonal P6xLexOLEU2 ste12Δ0 strain” value came to 4.2 fold. In addition, the “promoter strength relative to P6xLexOLEU2 at maximal induction” value in data set [2] (SSC-normalized promoter activity) is recorded as 1.4 fold. Moreover, the “CD19 level at unstimulated conditions” value in data set [3] (no GPCR stimulation) is “extremely low levels of CD19 at the limit of detection”. Also, the “fold upregulation of CD19 display relative to unstimulated condition” value in data set [3] is given as 774±165 fold.

Values taken from patent US20260242721A1, “A SYNTHETIC CELLULAR ADVANCED SIGNAL ADAPTER (SCASA) SYSTEM” (Danmarks Tekniske Universitet, priority 2023, published 2026).
